According to US20170210813A1 (Regeneron, published 2017):

Columns and labels:
[1] = target: T1, Macaca fascicularis PDGFRb.mmh (Macaca fascicularis); assay: SPR, mAb captured, 25 C
T1 construct: Soluble monomeric construct; also called mfPDGFRb.mmh
T1 chain: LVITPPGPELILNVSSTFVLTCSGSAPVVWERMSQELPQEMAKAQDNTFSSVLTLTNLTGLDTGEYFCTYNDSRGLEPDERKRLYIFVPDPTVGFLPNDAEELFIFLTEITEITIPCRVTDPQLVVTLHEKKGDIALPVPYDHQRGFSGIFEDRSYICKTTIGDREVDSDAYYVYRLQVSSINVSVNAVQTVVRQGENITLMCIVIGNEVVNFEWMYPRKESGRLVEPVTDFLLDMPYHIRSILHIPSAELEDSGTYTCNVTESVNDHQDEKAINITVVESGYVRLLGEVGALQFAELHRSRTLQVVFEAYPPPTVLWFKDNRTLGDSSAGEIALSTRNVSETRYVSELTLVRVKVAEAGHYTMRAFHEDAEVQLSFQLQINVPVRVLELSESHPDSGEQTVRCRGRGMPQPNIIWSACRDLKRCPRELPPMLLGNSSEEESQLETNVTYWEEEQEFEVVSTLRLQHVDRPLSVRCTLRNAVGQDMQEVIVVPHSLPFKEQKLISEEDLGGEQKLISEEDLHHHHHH
Method: (§1) Antibodies, expressed as either mouse Fc (prefix H1M; H2M) or human Fc (prefix H4H), were captured on their respective anti-Fc sensor surfaces (Mab capture format). […] Kinetic association (kₐ) and dissociation (kd) rate constants were determined by processing and fitting the data to a 1:1 binding model using Scrubber 2.0 curve fitting software.

human PDGFRb.mFc = target: T2, human PDGFRb.mFc (human); assay: SPR, mAb captured, 25 C
T2 construct: Soluble dimeric construct with mouse Fc; also called hPDGFRb.mFc; soluble human PDGFR-beta.mFc
T2 chain: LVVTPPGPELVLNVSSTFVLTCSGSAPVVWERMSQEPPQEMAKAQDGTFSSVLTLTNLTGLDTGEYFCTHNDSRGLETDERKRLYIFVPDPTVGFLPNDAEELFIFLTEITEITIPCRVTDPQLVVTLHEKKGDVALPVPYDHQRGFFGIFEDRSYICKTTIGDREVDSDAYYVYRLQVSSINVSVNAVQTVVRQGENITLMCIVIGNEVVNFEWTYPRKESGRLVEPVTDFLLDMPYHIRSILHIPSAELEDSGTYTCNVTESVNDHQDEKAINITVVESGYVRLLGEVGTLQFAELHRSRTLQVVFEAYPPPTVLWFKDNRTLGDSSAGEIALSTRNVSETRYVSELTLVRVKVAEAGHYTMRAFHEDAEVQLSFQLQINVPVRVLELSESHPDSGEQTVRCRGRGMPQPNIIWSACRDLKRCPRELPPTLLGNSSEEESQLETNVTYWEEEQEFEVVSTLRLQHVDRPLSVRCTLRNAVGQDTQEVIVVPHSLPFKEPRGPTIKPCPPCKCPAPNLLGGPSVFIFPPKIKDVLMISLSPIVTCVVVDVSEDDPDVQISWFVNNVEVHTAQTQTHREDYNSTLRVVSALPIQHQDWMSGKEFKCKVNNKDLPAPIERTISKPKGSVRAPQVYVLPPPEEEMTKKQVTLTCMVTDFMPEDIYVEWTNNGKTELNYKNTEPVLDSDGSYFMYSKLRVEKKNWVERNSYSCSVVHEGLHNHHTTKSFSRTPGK
Method: as §1

hPDGFRb.mmh [2] = target: T3, hPDGFRb.mmh (human, UniProt P09619 33-531); assay: SPR, mAb captured, 25 C
T3 construct: Soluble monomeric construct; also called soluble human PDGFR-beta.mmh
Method: as §1

hPDGFRb.mmh [3] = target: T3, hPDGFRb.mmh; assay: SPR, mAb captured, 37 C
Method: as §1

[4] = target: T4, full length human PDGFR-beta on HEK293 cells (human, UniProt P09619 33-1106); assay: cell-based or functional assay
hPDGFRb.mmh [5] = target: T3, hPDGFRb.mmh; assay: blocking ELISA, biot-hPDGFRb.mmh to coated PDGF-BB
Method: The equilibrated PDGFR-beta/antibody solutions were added to ligand-coated plates, allowed to incubate for 1 hr, and washed. Levels of bound biot-hPDGFR-beta.mmh were detected using HRP conjugated streptavidin. Data were analyzed using Prism software and IC₅₀ values were calculated as the amount of antibody required to achieve 50% reduction of hPDGFR-beta-mmh bound to ligand. Maximum blocking values were also calculated and reflect the ability of the antibody to block relative to baseline. The absorbance measured at the constant amount of 250 pM biot-hPDGFR-beta-mmh on the dose curve is defined as 0% blocking and the absorbance with no added PDGFR-beta is defined as 100%. The absorbance of the wells containing the highest antibody concentration determined the maximum blocking percent.

human PDGFRb.hFc [6] = target: T5, human PDGFRb.hFc (human); assay: SPR, mAb captured, 25 C
T5 construct: Soluble dimeric construct with human Fc; also called hPDGFRb.hFc
Method: as §1

[7] = target: T1, Macaca fascicularis PDGFRb.mmh; assay: SPR, mAb captured, 37 C
Method: as §1

human PDGFRb.hFc [8] = target: T5, human PDGFRb.hFc; assay: SPR, mAb captured, 37 C
Method: as §1

hPDGFRb.mmh [9] = target: T3, hPDGFRb.mmh; assay: Octet BLI cross-competition, 25 C; hPDGFRb.mmh on anti-Penta-His tips pre-saturated with mAb-1 H4H3305N (row 8)
Method: (§2) A cross-competition assay was conducted to assess the ability of select antibodies to compete with one another for binding to human PDGFR-beta. […] Each PDGFR-beta.mmh-coated sensor tip was saturated for 5 min with a first anti-PDGFR-beta antibody (Mab #1; 50 μg/mL). Next, each sensor tip was saturated with a solution of a second anti-PDGFR-beta antibody (Mab #2). The real time response of Mab #2 binding to PDGR-beta.mmh pre-complexed with Mab #1 was then monitored. All assays were performed at 25° C. with a flow rate of 1000 rpm on an Octet RED384 biosensor in Octet HBST buffer according to manufacturer's instructions (ForteBio Corp., Menlo Park, Calif.). Results are illustrated in FIG. 2.

hPDGFRb.mmh [10] = target: T3, hPDGFRb.mmh; assay: Octet BLI cross-competition, 25 C; hPDGFRb.mmh on anti-Penta-His tips pre-saturated with mAb-1 Control I (row 1)
Method: as §2

hPDGFRb.mmh [11] = target: T3, hPDGFRb.mmh; assay: Octet BLI cross-competition, 25 C; hPDGFRb.mmh on anti-Penta-His tips pre-saturated with mAb-1 H4H3099S (row 6)
Method: as §2

hPDGFRb.mmh [12] = target: T3, hPDGFRb.mmh; assay: Octet BLI cross-competition, 25 C; hPDGFRb.mmh on anti-Penta-His tips pre-saturated with mAb-1 H4H3103S (row 4)
Method: as §2

hPDGFRb.mmh [13] = target: T3, hPDGFRb.mmh; assay: Octet BLI cross-competition, 25 C; hPDGFRb.mmh on anti-Penta-His tips pre-saturated with mAb-1 H4H3374N (row 3)
Method: as §2

hPDGFRb.mmh [14] = target: T3, hPDGFRb.mmh; assay: Octet BLI cross-competition, 25 C; hPDGFRb.mmh on anti-Penta-His tips pre-saturated with mAb-1 H4H3094P (row 5)
Method: as §2

[15] = target: T4, full length human PDGFR-beta on HEK293 …; assay: cell-based or functional assay; remark: listed apart in the source
hPDGFRb.mmh [16] = target: T3, hPDGFRb.mmh; assay: Octet BLI cross-competition, 25 C; hPDGFRb.mmh on anti-Penta-His tips pre-saturated with mAb-1 H4H3107S (row 7)
Method: as §2

hPDGFRb.mmh [17] = target: T3, hPDGFRb.mmh; assay: Octet BLI cross-competition, 25 C; hPDGFRb.mmh on anti-Penta-His tips pre-saturated with mAb-1 H4H3365N (row 2)
Method: as §2

B1: H1M3374N (antibody, V domains shown)
VH: QLQLQESGPGLVKPSETLSLTCTVSGGSITSSSYYWGWIRQPPGKGLEWIGSIYYRGSTNYNPSLKSRVTISVDSSKNQFYLKVSSVTAVDTAVYYCARQNGAARPSWFDPWGQGTLVTVSS
VL: EIVLTQSPDTISLSPGERATLSCRASQSISSIYLAWYQQKPGQAPRLLIYGASSRVTGIPDRFSVSGSGTDFTLTISRLEPEDFAVYYCQHYGISPFTFGPGTKVDIR
notes: mouse Fc format; also called H2M3374N
Work on B1 yielded a Kd [1] of 2.7 nM, a koff [1] of 0.000371 s⁻¹ and a kon [1] of 137000 M⁻¹ s⁻¹. The t1/2 [1] was 0.517 h, the Kd (human PDGFRb.mFc) was 0.108 nM and the koff (human PDGFRb.mFc) was 0.000107 s⁻¹. It also gave a kon (human PDGFRb.mFc) of 996000 M⁻¹ s⁻¹, a t1/2 (human PDGFRb.mFc) of 1.8 h and a Kd (hPDGFRb.mmh [2]) of 1.99 nM. For the same binder, the koff (hPDGFRb.mmh [2]) was 0.000331 s⁻¹, the kon (hPDGFRb.mmh [2]) was 167000 M⁻¹ s⁻¹ and the t1/2 (hPDGFRb.mmh [2]) was 0.583 h. It also gave a Kd (hPDGFRb.mmh [3]) of 1.71 nM, a koff (hPDGFRb.mmh [3]) of 0.00079 s⁻¹ and a kon (hPDGFRb.mmh [3]) of 463000 M⁻¹ s⁻¹. The t1/2 (hPDGFRb.mmh [3]) was 0.25 h, the “IC50, blocking PDGF-BB (250 pM) activation, SRE-luciferase” value [4] was 3.1e-10 M and the “IC50, blocking PDGF-DD (400 pM) activation, SRE-luciferase” value [4] was 2.1e-10 M. For the same binder, the “% Maximum Blocking” value (hPDGFRb.mmh [5]) was 88% and the IC50 (hPDGFRb.mmh [5]) was 0.077 nM.

B2: H4H3310N (antibody, human IgG4, V domains shown)
VH: EVQLLESGGDLVQPGGSLRLSCAASGITFSSFAMSWVRQAPGKGLEWVSTVSVSAGITYYADSVKGRFTISRDNSKNTLYLQMNSLRAEDTAIYYCAKSSCTTNSCPAYFDYWGLGTLVTVSS
VL: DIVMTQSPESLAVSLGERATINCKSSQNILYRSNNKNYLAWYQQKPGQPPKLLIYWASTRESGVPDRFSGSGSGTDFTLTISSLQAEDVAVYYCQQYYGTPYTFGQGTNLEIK
notes: human IgG4 Fc (H4H prefix)
Work on B2 yielded a Kd [1] of 3.75 nM, a koff [1] of 0.000108 s⁻¹ and a kon [1] of 28800 M⁻¹ s⁻¹. It also gave a t1/2 [1] of 1.78 h, a Kd (human PDGFRb.hFc [6]) of 0.652 nM and a koff (human PDGFRb.hFc [6]) of 2.9e-05 s⁻¹. For the same binder, the kon (human PDGFRb.hFc [6]) was 44500 M⁻¹ s⁻¹, the t1/2 (human PDGFRb.hFc [6]) was 6.63 h and the Kd (hPDGFRb.mmh [2]) was 3.41 nM. The koff (hPDGFRb.mmh [2]) was 8.92e-05 s⁻¹, the kon (hPDGFRb.mmh [2]) was 26100 M⁻¹ s⁻¹ and the t1/2 (hPDGFRb.mmh [2]) was 2.17 h. For the same binder, the Kd [7] was 7.62 nM, the koff [7] was 0.000392 s⁻¹ and the kon [7] was 51400 M⁻¹ s⁻¹. The t1/2 [7] was 0.483 h, the Kd (human PDGFRb.hFc [8]) was 0.632 nM and the koff (human PDGFRb.hFc [8]) was 4.5e-05 s⁻¹. It also gave a kon (human PDGFRb.hFc [8]) of 71300 M⁻¹ s⁻¹, a t1/2 (human PDGFRb.hFc [8]) of 4.27 h and a Kd (hPDGFRb.mmh [3]) of 6.65 nM. It also gave a koff (hPDGFRb.mmh [3]) of 0.000339 s⁻¹, a kon (hPDGFRb.mmh [3]) of 50900 M⁻¹ s⁻¹ and a t1/2 (hPDGFRb.mmh [3]) of 0.567 h. The “Response of mAb-2 Binding to hPDGFRβ.mmh Pre-Complexed with mAb-1 (nm)” value (“Response of mAb-2 Binding” for short) (hPDGFRb.mmh [9]) was 0.01 nm, the “Response of mAb-2 Binding” value (hPDGFRb.mmh [10]) was 0.2 nm and the “Response of mAb-2 Binding” value (hPDGFRb.mmh [11]) was -0.01 nm. For the same binder, the “Response of mAb-2 Binding” value (hPDGFRb.mmh [12]) was 0.24 nm, the “Response of mAb-2 Binding” value (hPDGFRb.mmh [13]) was 0.23 nm and the “IC50, blocking PDGF-BB (250 pM) activation, SRE-luciferase” value [4] was 6.8e-10 M. The “IC50, blocking PDGF-DD (400 pM) activation, SRE-luciferase” value [4] was 6.6e-10 M, the “% Maximum Blocking” value (hPDGFRb.mmh [5]) was 86% and the IC50 (hPDGFRb.mmh [5]) was 0.45 nM. For the same binder, the “Response of mAb-2 Binding” value (hPDGFRb.mmh [14]) was 0.27 nm, the “Percent Internalization (Relative to Control I)” value [15] was 66% and the “Response of mAb-2 Binding” value (hPDGFRb.mmh [16]) was -0.01 nm. For the same binder, the “Response of mAb-2 Binding” value (hPDGFRb.mmh [17]) was 0.24 nm.
